The values that follow come from US20210139917.

Data set [1] has as its target SB(L8F)-SNAC, peptide in which D-Leu at the C-terminus of SB-SNAC is substituted with D-Phe.
For data set [2], the target named is substrate peptide (SNAC body) shown in FIG. 4.
For data set [3], the target named is longer peptide (11 amino acid residues, SNAC body).
Data set [4] concerns the target substrate in which Ile at the N-terminus of the compound indicated in 3 of FIG. 2a is substituted with L-Trp.
In data set [5] the target is methyl ester of the compound indicated with 3 in FIG. 2a.
For data set [6], the target named is shorter peptide (7 amino acid residues, SNAC body).
Data set [7] concerns the target substrate peptide 3 (SB-SNAC), SNAC body indicated with 3 in FIG. 2a.
Data set [8] addresses SB(L8A)-SNAC, peptide in which D-Leu at the C-terminus of SB-SNAC is substituted with D-Ala.

B1: recombinant SurE protein (peptide cyclization enzyme derived from Streptomyces albidoflavus NBRC 12854) (protein)
chain: VGAEGAERDAVGALFEELVREHRVTGAQLSVYRDGALSEYATGLASVRTGEPVTPRTGFPFGSVTKFLTAELVMQFVCDGDLDLDDPLAGLLPDLGRAAGPPLGTATVRQLLSHTAGVVDSIEYDEMRGPSYRRFAAACARQPALFPPGLAFSYSNTGYCLLGAVIEAASGMDWWTAMDSCLLRPLGIEPAFLHDPRPGQGGAARPVAEGHALRAGGERAEHVDHMASLSLAAAGGLVGSATDLVTAARPHLADRKTFAQHDLLPEDAVLAMRTCVPDAEPFGLADGWGLGLMRHGTGDGAWYGHDGAVGGASCNLRIHPDRSLALALTANSTAGPKLWEALVARLPEAGLDVGHYALPVPDSAPLAPDAGHLGTYANGDLELMVTHDAAGDLFLTRESYSDYRLSLHEDDLFVARSGEPGALPITGRFVREHPAGPVALLQYGGRAMHRL
For the protein B1, the “kcat/KM of the cyclization reaction relative to substrate 3 of FIG. 2a” value in data set [1] and in data set [4] was “two to five times higher than the kcat/KM value obtained when the compound indicated with 3 in FIG. 2a was used as a substrate” throughout. Further, the “peptide cyclization reaction, HPLC and mass spectrometry (extracted ion chromatogram)” value in data set [2] is recorded as “a product having a molecular weight corresponding to the molecular weight (m/z 1038.8) of a cyclized product of Surugamide F (cyclic Surugamide F) was detected”. The “peptide cyclization reaction (data not shown)” value in data set [3] and in data set [6] was “a cyclized product was observed to be obtained by the recombinant SurE” each time. Also, in data set [5], the peptide cyclization reaction entry is “even when the methyl ester was used as a substrate, the same cyclized product as in the case of using the SNAC body was produced”. Also, the “peptide cyclization reaction, HPLC analysis of the product” value in data set [7] is given as “cyclized the substrate peptide to give a cyclized peptide 1 (Surugamide B) as a single product”.

B2: peptide cyclization enzyme from Goodfellowiella coeruleoviolacea NBRC 14988 (protein)
chain: VPNEQDLGSLLARLAERHRVPGAQLSVCHDSASVTVVTGRERHGAATPVTARSAFPLGSLTKPFTAALAMVLVADGDLDLDEPVAGYHPGVTLRRLLSHTAGLESNVDEQAAAGVPRRRWVTRYPARLAPEHPPGTVFSYSNVGYLLAGHLVEEVTGLDWAEAVESVLLRPLGITPAFVVGAAGSRGVVCGHVLTDDRVLPVAEQVMPEVEAPNGALALSSADLLAFAALFSANSPAPDVLDPATAALMCQDQLADVRVGPYGMADGWGLGWARYRGAGADWFGHDGTGDGTSCHLRFDPERGTAVALTTNGSTGAALWRELCAELAERHVLPPEWGREPGEATPVAGPPDGAGHYANGPAEFVVTRQDDDGLALVLDGAQAVPLTCLPDLRFQLRLGTTVLSGRFLRDPDTGGIDHIQVTGRLARRRQVTG
With B2, the “peptide cyclization reaction, HPLC” value in data set [1], in data set [8] and in data set [7] was “the two enzymes produced cyclized peptides from three substrates” in each case.

B3: peptide cyclization enzyme from Streptomyces noursei NBRC 15452 (protein)
chain: VHGDSADPAGYGAGDGSPLDLDLDRLARDCDVAGGQLAVHHHGVLETWEFGEEEPGAGRPVHSATAFPYGSTTKVCTATSVLQLVGDGDLDLDRPVREWLPEAGTVPEARRDHPALAATLRQLLSHTAGLPSDHDDADASSLRRWLTGFLAAPADARPAPGTFSYSNVGYGIAGRVVESVTGLPWYEAVRDYLLRPLGTAITALPAEPGSLPAGGLAGSAADLVRLGLLHIAEPGRPDLADPAALGEATRPTAGADPFGLADGWGPGLGHFGPAEDRWLGHDGTLDGATCHLRIHPRRGTVIALTTNSPTGQALWDAVVGALRDAGIDVGVYRPAPPPSLAQGGAPAGAAAFADCTGTYRNGDLAVTVGLDGPHLVLELPGGARELAEPLARRTFAARGAGAFLGRFAVDARTGAVHALQYSGRTLLRDTGRAHGARPH
For B3, the “peptide cyclization reaction, HPLC” value in data set [1], in data set [8] and in data set [7] was “the two enzymes produced cyclized peptides from three substrates” throughout.
